Values of other authors in PMC6691274 (Molecular Medicine Reports, 2019).
Read-outs that look alike come from different tables or passages of the source.

Tests used:
GLP-1R = target: T1, GLP-1R (Rattus norvegicus, UniProt P32301); conditions: INS-1 rat insulinoma xenograft model and rat MI/R model
T1 sequence (P32301 22-463): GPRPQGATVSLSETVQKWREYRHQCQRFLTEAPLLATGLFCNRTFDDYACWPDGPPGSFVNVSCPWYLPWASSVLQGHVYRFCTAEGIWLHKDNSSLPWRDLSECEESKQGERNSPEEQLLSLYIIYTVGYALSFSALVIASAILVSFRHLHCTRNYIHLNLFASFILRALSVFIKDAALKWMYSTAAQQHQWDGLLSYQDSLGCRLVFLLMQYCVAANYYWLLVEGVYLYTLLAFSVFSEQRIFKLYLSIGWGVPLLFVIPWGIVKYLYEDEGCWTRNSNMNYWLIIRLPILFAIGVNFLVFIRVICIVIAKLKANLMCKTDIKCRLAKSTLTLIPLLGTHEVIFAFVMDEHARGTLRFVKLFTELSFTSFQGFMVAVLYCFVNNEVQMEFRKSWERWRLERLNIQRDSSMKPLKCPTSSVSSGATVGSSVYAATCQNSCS

[1] = tested on: dipeptidyl-peptidase-IV (DPP-IV)

^18F-4-fluorobenzamido-N-ethylamino-maleimide (FBEM)-Cys^40-exendin-4 [^18F-FBEM-Cys^40-exendin-4]
Affinity with GLP-1R (GLP-1R): high affinity

Exendin-4: an analog of GLP-1 with 53% amino acid homology, resistant to DPP-IV
Stability towards DPP-IV [1]: resistant

GLP-1: 30-amino-acid-long gut hormone secreted from intestinal endocrine L-cells
Stability towards DPP-IV ([1]; upon being released into the blood): rapidly degraded
